The target of this assay is Recombinant soluble HA trimer of A/New Caledonia/20/1999 (H1N1 NC99) (Influenza A virus A/New …, strain). Briefly: cryo-EM structure.

B1: 310-63E6 Fab (Fab, V domains shown)
VH: QVQLVQSGAEVKKPGSSVKVSCTASGGTFSTYQFSWVRQAPGQGLEWMGRIVPIQGMDYAQKFRGRVTITADKWTSTVYMEVTSLRSEDTAVYYCATSRSMYFYYQLDVWGRGTTVTVSS
VL: EIVLTQSPGTLSLSPGERATVSCRASQSVTSTFLAWYQQRPGQAPRLLIYGASSRATGIPDRFSGSGSEADFTLTINRLEPEDFAVYYCQQYATSPWTFGQGTKVEIK
Regarding B1, the binding result is given as “binds”.

B2: 310-39G10 Fab (Fab, V domains shown)
VH: QVQLVQSGAEVKKPGSSVKVSCKASGGTFSRYTISWVRQAPGQGLEWMGRISPIAGLENYAQKFQGRVTITADISTSTAYMELSSLRSDDTAVYYCAGSSGYYQPPPYWGQGTLVTVSS
VL: EIVLTQAPFSLSLSPGERATLSCRASQSVSSSSLAWYHQKPGQAPRLLIYGASSRATGIPDRFSGSGSGTDFTLTISRLEPEDFSLYYCQQYGSSPLTFGQGTRLEIK
Regarding B2, the binding result is on record as “binds”.
